Legend:
[1] = test system: peptide 23, Dap-substituted pyrene derivative at Y+3
[2] = test system: peptide 25, Dab-modified pyrene analogue at Y-2

Sequence of Yes (chain, as listed by the source): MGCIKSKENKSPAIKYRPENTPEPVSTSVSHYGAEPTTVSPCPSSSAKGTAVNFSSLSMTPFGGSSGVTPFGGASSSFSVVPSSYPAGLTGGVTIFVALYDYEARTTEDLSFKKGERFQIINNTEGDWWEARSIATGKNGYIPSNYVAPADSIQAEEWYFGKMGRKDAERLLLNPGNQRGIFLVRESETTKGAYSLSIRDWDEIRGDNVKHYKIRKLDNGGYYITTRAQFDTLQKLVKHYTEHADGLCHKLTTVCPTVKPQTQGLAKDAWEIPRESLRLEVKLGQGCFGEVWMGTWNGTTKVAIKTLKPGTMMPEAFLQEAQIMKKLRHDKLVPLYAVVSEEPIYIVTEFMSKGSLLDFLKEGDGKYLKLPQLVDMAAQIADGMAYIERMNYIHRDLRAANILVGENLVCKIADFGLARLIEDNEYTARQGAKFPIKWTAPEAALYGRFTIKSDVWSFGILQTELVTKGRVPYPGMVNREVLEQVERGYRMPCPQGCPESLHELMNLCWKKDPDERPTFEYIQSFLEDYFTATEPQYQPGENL
Sequence of TrkA (chain, as listed by the source): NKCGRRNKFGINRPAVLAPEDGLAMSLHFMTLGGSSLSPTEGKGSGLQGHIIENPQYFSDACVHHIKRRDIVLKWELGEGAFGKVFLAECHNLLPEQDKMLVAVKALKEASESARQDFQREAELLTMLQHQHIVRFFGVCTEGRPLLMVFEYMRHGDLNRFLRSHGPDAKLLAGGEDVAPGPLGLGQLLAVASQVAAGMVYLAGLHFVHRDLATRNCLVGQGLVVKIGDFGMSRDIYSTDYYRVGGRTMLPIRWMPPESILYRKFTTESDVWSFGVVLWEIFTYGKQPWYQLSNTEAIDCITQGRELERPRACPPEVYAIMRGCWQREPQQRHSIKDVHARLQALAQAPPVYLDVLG
Sequence of FynT (chain, as listed by the source): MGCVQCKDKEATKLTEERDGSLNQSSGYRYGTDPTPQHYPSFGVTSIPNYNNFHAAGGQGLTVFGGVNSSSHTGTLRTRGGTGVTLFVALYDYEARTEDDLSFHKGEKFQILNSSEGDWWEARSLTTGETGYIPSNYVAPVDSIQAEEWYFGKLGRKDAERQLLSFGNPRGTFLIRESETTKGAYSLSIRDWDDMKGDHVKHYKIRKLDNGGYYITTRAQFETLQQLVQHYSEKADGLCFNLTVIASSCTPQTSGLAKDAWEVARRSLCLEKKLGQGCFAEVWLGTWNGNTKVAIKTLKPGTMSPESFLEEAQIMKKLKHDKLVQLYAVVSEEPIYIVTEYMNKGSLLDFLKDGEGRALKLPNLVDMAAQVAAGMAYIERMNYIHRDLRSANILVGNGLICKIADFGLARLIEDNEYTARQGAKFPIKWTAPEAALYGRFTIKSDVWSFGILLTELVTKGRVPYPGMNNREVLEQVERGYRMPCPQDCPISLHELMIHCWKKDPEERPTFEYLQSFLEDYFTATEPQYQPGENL

## Fgr
[1]
  Km: 54 µM
  Vmax: 2.3 µmol/min/mg

## TrkA
[1]
  Km: 350 µM
  Vmax: 1.1 µmol/min/mg

## Yes
[1]
  Km: 37 µM
  Vmax: 3.3 µmol/min/mg

## FynT
[1]
  Km: 69 µM
  Vmax: 0.24 µmol/min/mg

## LynA
[1]
  Km: 140 µM
  Vmax: 2.6 µmol/min/mg
[2]
  Km: 43 µM
  Vmax: 2.6 µmol/min/mg

## EGF
[1]
  phosphorylation of the peptide (fluorescence): unable to effectively catalyze the phosphorylation of either 23 or 25
[2]
  phosphorylation of the peptide (fluorescence): unable to effectively catalyze the phosphorylation of either 23 or 25

Source: patent publication US20060211075
